Here are results for 1 substance from patent EP0799050B1, “RADIOLABELED ANNEXIN-GALACTOSE CLUSTER CONJUGATES” (NEORX CORPORATION, priority 1994, dated 1996).

The nature of the data set: blood clearance in the swine model. The following applies: in vivo. The protocol: Annexin V-galactose was radiolabeled with technetium-99m using a diamide dimercaptide (N2S2) chelate as described by Kasina et. al., J. Nucl. Med. 32: 1445-51, 1991. The preformed active ester chelate was diluted with 2.0 ml water and purified before conjugation to annexin V-galactose using a modified conditioned C-18 column (commercially available from J.T. Baker), as described by Fritzberg et. al., Proc. Natl. Acad. Sci. USA 85: 4025-29, 1988, washing with 2.0 ml water eight times followed by drying the column for 5 min and eluting with 100% acetonitrile. The solvent was removed under a steady stream of N2. Then 0.15 ml of PBS, 0.35 ml of annexin V-galactose (4.7:1 galactose:annexin V) at 1.0 mg/ml, and 0.2 ml of 0.2M bicarbonate buffer (pH 10.0) were added for conjugation to Tc-99m-N2S2-TFP ester. […] Fractions of 1.0 ml were collected, and fractions containing annexin V were pooled. Protein concentration was determined by UV absorption at 280 nm. […] The ITLC sheets were cut into two halves, and each half was counted in a gamma counter or a dose calibrator. […] An animal model, as previously described in Example III, was employed to evaluate blood clearance of the molecules.

Turning to “Tc-99m-annexin V: annexin V radiolabeled with Tc-99m by a diamide dimercaptide N2S2 chelate (Example I)”, the “%ID/g a” value was “a = 0.0389 %ID/g”, the “%ID/g b” value is reported as “b = 0.0300 %ID/g”, the t1/2 a entry is given as “a = 9.6 min” and the t1/2 b entry was “b = 46 min”.
